This note sets out measurements from US20030224997A1.

Positions of bridges follow the written chain, without caps; N, C: chain ends. No end group written: not given here. *: point of attachment. Biotin = O=C1N[C@H]2[C@H](CS[C@H]2CCCCC(=O)*)N1

For experiment [1], the target named is protein on the CEM cell surface that binds L1AD3 (L1AD3 protein receptor, 27-35 kDa) (human).
The target is the same in experiment [2]. The experiment is described as follows: fluorescence spectroscopy, CEM cells in suspension, avidin-FITC.
Experiment [3] has the same target. The source holds these as a separate data set.

Biotin-LKCNKLVPLFYKTC (disulfide 3-14) [biotinylated L1AD3 (btn-…), cyclized] had a Kd in experiment [1] of 6 µM. This molecule also gave a fluorescence increase over cells not incubated with biotinylated peptide in experiment [2] of 48%.
In the case of LKCNKLVPLFYKTC (disulfide 3-14) [L1AD3 peptide (…), cyclized], in experiment [1], the percent reduction of binding of biotinylated peptide is 47%. Besides, the percent inhibition of binding of biotinylated L1AD3 in experiment [3] is 50%.

Broadly, the Kd is the equilibrium constant for the complex coming apart. Read a high Kd as a looser complex.
